Results published in patent publication US20230083273A1 (TRUSTEES OF INDIANA UNIVERSITY, published 2023).
Residue numbers refer to the chain shown, from its start. In names and notes the source's numbering stands.

Columns and labels:
[1] = target: T1, HBV Cp149His monomer (Cp149-6xHis half-dimer) (hepatitis B virus (HBV), UniProt P03147 1-149); test: native mass spectrometry of the purified co-expressed protein; also a single SEC peak at the dimer position and about equal SDS-PAGE bands
T1 construct: also called Cp149His6; CpHis monomer

[2] = target: the molecule itself; test: Ni2+-driven assembly (10 uM heterodimer, 100 uM NiCl2, low ionic strength); SEC, CDMS, negative-stain EM
HBV Cp150 homodimer [3] = target: T2, HBV Cp150 homodimer (hepatitis B virus (HBV), UniProt P03147 1-149); test: negative-stain EM
T2 chain: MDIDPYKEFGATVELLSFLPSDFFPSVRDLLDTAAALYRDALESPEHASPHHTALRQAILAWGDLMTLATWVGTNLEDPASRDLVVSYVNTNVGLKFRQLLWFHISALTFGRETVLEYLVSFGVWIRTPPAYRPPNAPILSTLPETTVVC

HBV Cp150 homodimer [4] = target: T2, HBV Cp150 homodimer; test: co-assembly at 300 mM NaCl, SEC
[5] = target: the molecule itself; test: SEC of capsid assembly at 300 mM NaCl

B1: HBV Cp149Y132A monomer (Cp149-Y132A half-dimer) (other)
chain: MDIDPYKEFGATVELLSFLPSDFFPSVRDLLDTAAALYRDALESPEHCSPHHTALRQAILCWGDLMTLATWVGTNLEDPASRDLVVSYVNTNVGLKFRQLLWFHISCLTFGRETVLEYLVSFGVWIRTPPAARPPNAPILSTLPETTVV
Q: Does B1 bind [1]?
A: Result: binds

B2: heterodimer Cp149HisCp149Y132A (other)
chain 1: MDIDPYKEFGATVELLSFLPSDFFPSVRDLLDTAAALYRDALESPEHCSPHHTALRQAILCWGDLMTLATWVGTNLEDPASRDLVVSYVNTNVGLKFRQLLWFHISCLTFGRETVLEYLVSFGVWIRTPPAYRPPNAPILSTLPETTVVHHHHHH
chain 2: B1 chain
notes: also called Cp149His6Cp149Y132A; asymmetric heterodimer
Q: What does the source list for B2?
A: binding result [2]: binds; binding result (HBV Cp150 homodimer [3]): binds

B3: Cp149HisCp149Y132A hexamer (hexamer of heterodimers assembled with Ni2+) (other)
chain 1: B2 chain 1
chain 2: B1 chain
notes: also called heterodimer hexamer; hexamers
Q: Does B3 bind (HBV Cp150 homodimer [4])?
A: Result: binds

B4: HBV Cp149 homodimer (wild-type assembly domain) (other)
chain: B1 chain with A132Y
notes: also called wild-type homodimer Cp149
Q: Does B4 bind [5]?
A: Result: binds
